Values quoted from earlier work as cited in publication PMC10764639.

Target: TLR4 (Homo sapiens) (UniProt O00206)
Sequence of UniProt O00206 (O00206 24-839): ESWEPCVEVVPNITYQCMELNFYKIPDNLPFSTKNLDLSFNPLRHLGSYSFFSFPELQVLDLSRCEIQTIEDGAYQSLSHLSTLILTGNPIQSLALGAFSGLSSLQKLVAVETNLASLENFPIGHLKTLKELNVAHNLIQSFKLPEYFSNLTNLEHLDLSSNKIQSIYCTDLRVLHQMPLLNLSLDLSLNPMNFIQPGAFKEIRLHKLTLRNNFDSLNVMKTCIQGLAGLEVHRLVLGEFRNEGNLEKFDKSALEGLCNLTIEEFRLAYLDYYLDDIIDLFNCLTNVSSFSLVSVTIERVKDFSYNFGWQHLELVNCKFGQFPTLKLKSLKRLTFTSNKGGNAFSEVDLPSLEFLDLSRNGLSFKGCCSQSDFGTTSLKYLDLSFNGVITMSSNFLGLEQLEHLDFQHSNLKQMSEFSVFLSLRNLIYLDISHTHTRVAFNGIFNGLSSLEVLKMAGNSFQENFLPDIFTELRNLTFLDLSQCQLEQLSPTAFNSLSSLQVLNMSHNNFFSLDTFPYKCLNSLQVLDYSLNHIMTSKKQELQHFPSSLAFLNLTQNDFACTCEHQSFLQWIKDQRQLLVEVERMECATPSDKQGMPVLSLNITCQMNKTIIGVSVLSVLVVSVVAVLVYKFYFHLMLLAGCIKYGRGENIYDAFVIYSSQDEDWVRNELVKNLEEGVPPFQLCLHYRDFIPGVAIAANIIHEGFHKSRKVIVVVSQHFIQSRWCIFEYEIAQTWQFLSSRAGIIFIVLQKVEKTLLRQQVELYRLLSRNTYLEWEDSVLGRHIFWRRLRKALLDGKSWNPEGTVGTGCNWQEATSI

Question: For HMGB1 (from UniProt P09429), which Kd is on record?
Answer: Its Kd is 12 nM.
